Measured values from IntAct's records for PubMed 29039417.

B1: BBSome complex member BBS5 (Homo sapiens), Q8N3I7 (parent)
chain: MSVLDALWEDRDVRFDLSAQQMKTRPGEVLIDCLDSIEDTKGNNGDRGRLLVTNLRILWHSLALSRVNVSVGYNCILNITTRTANSKLRGQTEALYILTKCNSTRFEFIFTNLVPGSPRLFTSVMAVHRAYETSKMYRDFKLRSALIQNKQLRLLPQEHVYDKINGVWNLSSDQGNLGTFFITNVRIVWHANMNDSFNVSIPYLQIRSIKIRDSKFGLALVIESSQQSGGYVLGFKIDPVEKLQESVKEINSLHKVYSASPIFGVDYEMEEKPQPLEALTVEQIQDDVEIDSDGHTDAFVAYFADGNKQQDREPVFSEELGLAIEKLKDGFTLQGLWEVMS
partner: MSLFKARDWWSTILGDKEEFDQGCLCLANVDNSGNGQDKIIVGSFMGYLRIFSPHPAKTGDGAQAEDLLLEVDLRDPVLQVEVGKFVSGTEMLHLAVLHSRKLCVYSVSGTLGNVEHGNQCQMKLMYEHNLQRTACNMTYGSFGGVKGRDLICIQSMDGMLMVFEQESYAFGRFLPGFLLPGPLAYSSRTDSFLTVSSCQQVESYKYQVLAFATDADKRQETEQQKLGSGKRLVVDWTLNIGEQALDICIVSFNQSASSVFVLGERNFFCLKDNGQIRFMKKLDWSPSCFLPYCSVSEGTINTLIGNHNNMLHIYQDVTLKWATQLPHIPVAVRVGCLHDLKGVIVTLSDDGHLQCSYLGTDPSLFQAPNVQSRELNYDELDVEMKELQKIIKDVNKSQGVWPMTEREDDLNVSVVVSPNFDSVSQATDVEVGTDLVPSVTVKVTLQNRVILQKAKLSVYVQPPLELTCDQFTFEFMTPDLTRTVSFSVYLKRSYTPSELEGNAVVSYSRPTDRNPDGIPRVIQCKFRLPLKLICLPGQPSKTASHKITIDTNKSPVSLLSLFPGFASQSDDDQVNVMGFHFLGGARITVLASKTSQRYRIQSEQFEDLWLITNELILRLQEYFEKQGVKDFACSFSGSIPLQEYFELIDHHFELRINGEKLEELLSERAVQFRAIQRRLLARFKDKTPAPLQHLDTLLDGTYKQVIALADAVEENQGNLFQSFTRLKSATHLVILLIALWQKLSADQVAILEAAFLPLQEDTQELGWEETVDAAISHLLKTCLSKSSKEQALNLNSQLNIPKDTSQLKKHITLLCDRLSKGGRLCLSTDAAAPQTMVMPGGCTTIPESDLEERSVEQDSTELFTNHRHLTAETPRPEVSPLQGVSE

Variants of: B1
Settings: with pthb1_human BBS9, Q3SYG4

| effect of a mutation on the interaction | Variant |
| --- | --- |
| disrupting interaction strength | E28K |
| disrupting interaction strength | E28A |
| with no effect | I31E |
| with no effect | I31K |
| disrupting interaction strength | I31A |
| with no effect | C33A |
| with no effect | C33K |
| with no effect | C33E |
| with no effect | N44A |
| with no effect | N44K |
| with no effect | N44E |
| with no effect | N43E |
| with no effect | N43K |
| with no effect | N43A |
| with no effect | D39E |
| with no effect | D39A |
| with no effect | D39K |
| with no effect | W59A |
| with no effect | W59E |
| with no effect | W59K |
| with no effect | L34A |
| with no effect | L34K |
| with no effect | L34E |
| with no effect | D10E |

| effect of a mutation on the interaction | Variant |
| --- | --- |
| with no effect | D10K |
| with no effect | D10A |
| with no effect | I57E |
| with no effect | I57A |
| with no effect | I57K |
| disrupting interaction strength | R56K |
| disrupting interaction strength | R56E |
| disrupting interaction strength | R56A |
| disrupting interaction strength | R56G |
| with no effect | G45A |
| with no effect | G45E |
| with no effect | G45K |
| with no effect | A19E |
| with no effect | A19K |
| with no effect | T40E |
| with no effect | T40K |
| with no effect | T40A |
| disrupting interaction strength | V13A |
| disrupting interaction strength | V13E |
| disrupting interaction strength | V13K |
| disrupting interaction strength | V29K |
| with no effect | V29E |
| disrupting interaction strength | V29A |
| with no effect | Q21E |

| effect of a mutation on the interaction | Variant |
| --- | --- |
| with no effect | Q21A |
| with no effect | Q21K |
| disrupting interaction strength | V52K |
| with no effect | V52E |
| with no effect | V52A |
| with no effect | L58E |
| disrupting interaction strength | L58K |
| with no effect | L58A |
| with no effect | L50K |
| with no effect | L50E |
| disrupting interaction strength | L50A |
| with no effect | T53E |
| with no effect | T53A |
| with no effect | T53K |
| with no effect | S18A |
| with no effect | S18K |
| with no effect | S18E |
| disrupting interaction strength | M22K |
| disrupting interaction strength | M22A |
| disrupting interaction strength | M22E |
| disrupting interaction strength | G27E |
| with no effect | G27K |
| disrupting interaction strength | G27R |
| disrupting interaction strength | G27A |

| effect of a mutation on the interaction | Variant |
| --- | --- |
| disrupting interaction strength | R11W |
| disrupting interaction strength | R11A |
| with no effect | R11K |
| disrupting interaction strength | R11E |
| disrupting interaction strength | Q20A |
| with no effect | Q20K |
| with no effect | Q20E |
| disrupting interaction strength | N54E |
| with no effect | N54A |
| with no effect | N54K |
| with no effect | P26A |
| disrupting interaction strength | P26E |
| with no effect | P26K |
| with no effect | E38A |
| with no effect | E38K |
| disrupting interaction strength | R25E |
| with no effect | R25A |
| disrupting interaction strength | R25K |
| with no effect | R14K |
| with no effect | R14A |
| disrupting interaction strength | R14E |
| with no effect | L51A |
| with no effect | L51K |
| with no effect | L51E |

| effect of a mutation on the interaction | Variant |
| --- | --- |
| with no effect | H60K |
| with no effect | H60A |
| with no effect | H60E |
| with no effect | G48E |
| with no effect | G48K |
| with no effect | G48A |
| disrupting interaction strength | G48S |
| disrupting interaction strength | L55F |
| disrupting interaction strength | L55E |
| with no effect | L55K |
| disrupting interaction strength | L55A |
| with no effect | D46A |
| with no effect | D46K |
| disrupting interaction strength | D46N |
| with no effect | D46E |
| with no effect | T24A |
| with no effect | T24E |
| with no effect | T24K |
| with no effect | K23A |
| with no effect | K23E |
| with no effect | L30A |
| disrupting interaction strength | L30P |
| with no effect | L30E |
| with no effect | L30K |

| effect of a mutation on the interaction | Variant |
| --- | --- |
| with no effect | R47K |
| with no effect | R47E |
| with no effect | R47A |
| with no effect | D12E |
| with no effect | D12A |
| disrupting interaction strength | D12K |
| disrupting interaction strength | F15L |
| disrupting interaction strength | F15A |
| with no effect | F15K |
| disrupting interaction strength | F15E |
| disrupting interaction strength | D32G |
| with no effect | D32A |
| with no effect | D32E |
| with no effect | D32K |
| with no effect | K41E |
| with no effect | K41A |
| with no effect | D35A |
| with no effect | D35E |
| with no effect | D35K |
| with no effect | G42A |
| disrupting interaction strength | G42E |
| with no effect | G42K |
| with no effect | D16E |
| disrupting interaction strength | D16S |

| effect of a mutation on the interaction | Variant |
| --- | --- |
| with no effect | D16K |
| with no effect | D16A |
| with no effect | E9K |
| with no effect | E9A |
| with no effect | S36A |
| with no effect | S36K |
| with no effect | S36E |
| with no effect | I37A |
| with no effect | I37K |
| with no effect | I37E |
| disrupting interaction strength | L17E |
| disrupting interaction strength | L17K |
| disrupting interaction strength | L17R |
| disrupting interaction strength | L17A |
| with no effect | W8K |
| with no effect | S61A |
| with no effect | R49E |
| with no effect | R49K |
| with no effect | R49A |
